*1 amine or outer side, *2 acyl side, *3 side chain or, on linkers, in order; H or OH if unused. Bridges are numbered along the chain shown (N, C = ends). Where no end group is shown, it is not given here. [ ]: non-standard residue; d: D form. The star is where a group is joined. DOTA = O=C(O)CN1CCN(CC(=O)O)CCN(CC(=O)*)CCN(CC(=O)O)CC1; N(2-mercaptoethyl)Gly = O=C(CN(CCS[*:3])[*:1])[*:2]; 4Amb = NCc1ccc(C(=O)O)cc1; Orn = NCCC[C@H](N)C(=O)O; NTEG = not defined here; Aoc = NCCCCCCCC(=O)O; GABA = NCCCC(=O)O
B1: SEQ ID NO: 21 (peptide)
peptide: {DOTA}-[dF][Orn]CF[dW]KTF[N(2-mercaptoethyl)Gly]-NH2
modifications: disulfide 3-9
B2: SEQ ID NO: 8 (peptide)
peptide: {DOTA-GABA}-[dF]RCF[dW]KTF[N(2-mercaptoethyl)Gly]-NH2
modifications: disulfide 3-9; also: Ga complex of DOTA
B3: SEQ ID NO: 6 (peptide)
peptide: {DOTA}-[dF]RCF[dW]KTF[N(2-mercaptoethyl)Gly]-NH2
modifications: disulfide 3-9; also: Lu complex of DOTA
B4: SEQ ID NO: 11 (peptide)
peptide: {DOTA}-G[dF]RCF[dW]KTF[N(2-mercaptoethyl)Gly]-NH2
modifications: disulfide 4-10
SMILES: C[C@@H](O)[C@@H]1NC(=O)[C@H](CCCCN)NC(=O)[C@@H](Cc2c[nH]c3ccccc23)NC(=O)[C@H](Cc2ccccc2)NC(=O)[C@@H](NC(=O)[C@H](CCCNC(=N)N)NC(=O)[C@@H](Cc2ccccc2)NC(=O)CNC(=O)CN2CCN(CC(=O)O)CCN(CC(=O)O)CCN(CC(=O)O)CC2)CSSCCN(CC(N)=O)C(=O)[C@H](Cc2ccccc2)NC1=O
B5: SEQ ID NO: 18 (peptide)
peptide: {DOTA-4Amb}-[dF]RCF[dW]KTF[N(2-mercaptoethyl)Gly]-NH2
modifications: disulfide 3-9
B6: SEQ ID NO: 5 (peptide)
peptide: {DOTA}-[dF]RCF[dW]KTF[N(2-mercaptoethyl)Gly]-NH2
modifications: disulfide 3-9; also: Cu complex of DOTA
B7: SEQ ID NO: 1 (peptide)
peptide: H-[dF]RCF[dW]KTF[N(2-mercaptoethyl)Gly]-NH2
modifications: disulfide 3-9
SMILES: C[C@@H](O)[C@@H]1NC(=O)[C@H](CCCCN)NC(=O)[C@@H](Cc2c[nH]c3ccccc23)NC(=O)[C@H](Cc2ccccc2)NC(=O)[C@@H](NC(=O)[C@H](CCCNC(=N)N)NC(=O)[C@H](N)Cc2ccccc2)CSSCCN(CC(N)=O)C(=O)[C@H](Cc2ccccc2)NC1=O
B8: SEQ ID NO: 15 (peptide)
peptide: {DOTA-Aoc}-[dF]RCF[dW]KTF[N(2-mercaptoethyl)Gly]-NH2
modifications: disulfide 3-9
B9: SEQ ID NO: 9 (peptide)
peptide: {DOTA}-[dF]KCF[dW]KTF[N(2-mercaptoethyl)Gly]-NH2
modifications: disulfide 3-9
SMILES: C[C@@H](O)[C@@H]1NC(=O)[C@H](CCCCN)NC(=O)[C@@H](Cc2c[nH]c3ccccc23)NC(=O)[C@H](Cc2ccccc2)NC(=O)[C@@H](NC(=O)[C@H](CCCCN)NC(=O)[C@@H](Cc2ccccc2)NC(=O)CN2CCN(CC(=O)O)CCN(CC(=O)O)CCN(CC(=O)O)CC2)CSSCCN(CC(N)=O)C(=O)[C@H](Cc2ccccc2)NC1=O
B10: SEQ ID NO: 16 (peptide)
peptide: K[dF]RCF[dW]KTF[N(2-mercaptoethyl)Gly]-NH2
modifications: disulfide 4-10; not fully specified (residue 1, N-terminus); printed as (DOTA)2-Lys1-D-Phe2-Arg3-Cys4-Phe5-D-Trp6-Lys7-Thr8-Phe9-NTEG10-NH2 (cyclo 3-9); also: (DOTA)2 on Lys1, sites not given here
B11: SEQ ID NO: 12 (peptide)
peptide: {DOTA}-A[dF]RCF[dW]KTF[N(2-mercaptoethyl)Gly]-NH2
modifications: disulfide 4-10
SMILES: C[C@H](NC(=O)CN1CCN(CC(=O)O)CCN(CC(=O)O)CCN(CC(=O)O)CC1)C(=O)N[C@H](Cc1ccccc1)C(=O)N[C@@H](CCCNC(=N)N)C(=O)N[C@H]1CSSCCN(CC(N)=O)C(=O)[C@H](Cc2ccccc2)NC(=O)[C@H]([C@@H](C)O)NC(=O)[C@H](CCCCN)NC(=O)[C@@H](Cc2c[nH]c3ccccc23)NC(=O)[C@H](Cc2ccccc2)NC1=O
B12: SEQ ID NO: 20 (peptide)
peptide: {DOTA}-F[dF]RCF[dW]KTF[N(2-mercaptoethyl)Gly]-NH2
modifications: disulfide 4-10
SMILES: C[C@@H](O)[C@@H]1NC(=O)[C@H](CCCCN)NC(=O)[C@@H](Cc2c[nH]c3ccccc23)NC(=O)[C@H](Cc2ccccc2)NC(=O)[C@@H](NC(=O)[C@H](CCCNC(=N)N)NC(=O)[C@@H](Cc2ccccc2)NC(=O)[C@H](Cc2ccccc2)NC(=O)CN2CCN(CC(=O)O)CCN(CC(=O)O)CCN(CC(=O)O)CC2)CSSCCN(CC(N)=O)C(=O)[C@H](Cc2ccccc2)NC1=O
B13: SEQ ID NO: 10 (peptide)
peptide: {DOTA}-[dF]KCF[dW]KTF[NTEG]-NH2
modifications: disulfide 3-9; reading uncertain; also: Ga chelated by DOTA
B14: SEQ ID NO: 2 (peptide)
peptide: H-[dF]KCF[dW]KTF[N(2-mercaptoethyl)Gly]-NH2
modifications: disulfide 3-9
SMILES: C[C@@H](O)[C@@H]1NC(=O)[C@H](CCCCN)NC(=O)[C@@H](Cc2c[nH]c3ccccc23)NC(=O)[C@H](Cc2ccccc2)NC(=O)[C@@H](NC(=O)[C@H](CCCCN)NC(=O)[C@H](N)Cc2ccccc2)CSSCCN(CC(N)=O)C(=O)[C@H](Cc2ccccc2)NC1=O
B15: SEQ ID NO: 24 (peptide)
peptide: {DOTA}-[dF]KCY[dW]KTF[N(2-mercaptoethyl)Gly]-NH2
modifications: disulfide 3-9
SMILES: C[C@@H](O)[C@@H]1NC(=O)[C@H](CCCCN)NC(=O)[C@@H](Cc2c[nH]c3ccccc23)NC(=O)[C@H](Cc2ccc(O)cc2)NC(=O)[C@@H](NC(=O)[C@H](CCCCN)NC(=O)[C@@H](Cc2ccccc2)NC(=O)CN2CCN(CC(=O)O)CCN(CC(=O)O)CCN(CC(=O)O)CC2)CSSCCN(CC(N)=O)C(=O)[C@H](Cc2ccccc2)NC1=O

These binders were tested against human cloned somatostatin receptor 5 (human) (UniProt P35346) (assay: 125I-Tyr11-SRIF-14 displacement).
human cloned somatostatin receptor 5 (human), sequence (P35346 whole entry): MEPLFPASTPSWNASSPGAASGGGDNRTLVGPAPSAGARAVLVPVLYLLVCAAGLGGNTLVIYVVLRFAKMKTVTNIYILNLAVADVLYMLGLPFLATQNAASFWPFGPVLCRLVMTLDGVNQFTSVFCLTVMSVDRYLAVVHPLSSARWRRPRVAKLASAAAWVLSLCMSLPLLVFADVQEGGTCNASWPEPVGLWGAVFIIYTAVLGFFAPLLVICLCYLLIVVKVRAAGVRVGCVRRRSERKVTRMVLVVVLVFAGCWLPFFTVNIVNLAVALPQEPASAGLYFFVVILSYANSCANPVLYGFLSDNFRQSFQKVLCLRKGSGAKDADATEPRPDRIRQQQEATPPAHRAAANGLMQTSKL

% displacement at 1 nM [%]	% displacement at 10 nM [%]	IC50 [nM]	Ki [nM]	Binder
0	0	–	–	B1
0	15	–	–	B2
–	–	86	48	B3
0	0	–	–	B4
0	0	–	–	B5
–	–	150	82	B6
–	–	310	170	B7
0	0	–	–	B8
0	12	–	–	B9
0	3	–	–	B10
0	13	–	–	B11
0	0	–	–	B12

These binders were tested against human cloned somatostatin receptor 2 (human) (UniProt P30874) (assay: 125I-Tyr11-SRIF-14 displacement).
human cloned somatostatin receptor 2 (human), sequence (P30874 whole entry): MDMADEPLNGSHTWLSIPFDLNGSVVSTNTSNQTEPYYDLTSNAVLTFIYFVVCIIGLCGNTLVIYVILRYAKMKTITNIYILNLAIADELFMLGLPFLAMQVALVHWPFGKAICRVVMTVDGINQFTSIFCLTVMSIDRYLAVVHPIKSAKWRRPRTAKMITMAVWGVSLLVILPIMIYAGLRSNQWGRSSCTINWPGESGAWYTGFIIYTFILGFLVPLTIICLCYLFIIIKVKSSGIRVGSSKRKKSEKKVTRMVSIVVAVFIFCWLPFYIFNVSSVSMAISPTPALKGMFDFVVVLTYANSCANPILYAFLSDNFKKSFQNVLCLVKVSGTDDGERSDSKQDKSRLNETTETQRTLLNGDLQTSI

% displacement at 1 nM [%]	% displacement at 10 nM [%]	IC50 [nM]	Ki [nM]	Binder
0	2	–	–	B1
0	10	–	–	B2
–	–	210	110	B3
0	0	–	–	B4
0	0	–	–	B5
–	–	420	220	B6
–	–	390	320	B7
1	0	–	–	B8
0	0	–	–	B9
6	2	–	–	B10
0	0	–	–	B11
0	2	–	–	B12

These binders were tested against human cloned somatostatin receptor 4 (human) (UniProt P31391) (assay: 125I-Tyr11-SRIF-14 displacement).
human cloned somatostatin receptor 4 (human), sequence (P31391 whole entry): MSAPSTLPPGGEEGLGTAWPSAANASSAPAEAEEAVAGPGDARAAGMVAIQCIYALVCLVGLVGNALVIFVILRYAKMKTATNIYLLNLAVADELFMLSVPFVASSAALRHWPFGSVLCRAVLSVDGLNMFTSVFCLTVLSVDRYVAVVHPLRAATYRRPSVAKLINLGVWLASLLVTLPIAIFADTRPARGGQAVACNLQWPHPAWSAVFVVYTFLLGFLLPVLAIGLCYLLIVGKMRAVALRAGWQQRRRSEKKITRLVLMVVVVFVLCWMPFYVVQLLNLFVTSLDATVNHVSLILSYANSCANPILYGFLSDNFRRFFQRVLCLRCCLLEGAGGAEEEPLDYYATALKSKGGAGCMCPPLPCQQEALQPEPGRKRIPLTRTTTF

% displacement at 1 nM [%]	% displacement at 10 nM [%]	Binder
9	9	B1
5	4	B2
0	0	B4
0	8	B5
0	0	B8
0	0	B9
0	0	B10
0	0	B11
0	0	B12

Each binder was assayed against human cloned somatostatin receptor 1 (human) (UniProt P30872) (assay: 125I-Tyr11-SRIF-14 displacement).
human cloned somatostatin receptor 1 (human), sequence (P30872 whole entry): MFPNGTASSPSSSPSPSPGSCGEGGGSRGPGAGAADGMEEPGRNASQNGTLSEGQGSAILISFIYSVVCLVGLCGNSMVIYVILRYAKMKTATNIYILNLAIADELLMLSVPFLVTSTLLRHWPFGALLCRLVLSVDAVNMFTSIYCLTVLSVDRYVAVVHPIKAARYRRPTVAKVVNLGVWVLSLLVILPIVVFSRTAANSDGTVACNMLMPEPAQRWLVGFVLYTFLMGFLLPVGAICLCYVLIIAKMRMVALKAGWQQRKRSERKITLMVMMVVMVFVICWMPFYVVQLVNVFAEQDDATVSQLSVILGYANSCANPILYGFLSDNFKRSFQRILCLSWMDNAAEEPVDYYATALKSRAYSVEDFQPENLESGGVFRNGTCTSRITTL

% displacement at 1 nM [%]	% displacement at 10 nM [%]	IC50 [nM]	Ki [nM]	Binder
23	22	–	–	B1
0	10	–	–	B2
–	–	310	260	B3
2	19	–	–	B4
0	4	–	–	B5
–	–	780	640	B6
–	–	180	150	B7
6	18	–	–	B8
4	10	–	–	B9
0	5	–	–	B10
0	10	–	–	B11
8	14	–	–	B12

What follows are binders tested against human cloned somatostatin receptor 3 (human) (UniProt P32745) (assay: 125I-Tyr11-SRIF-14 displacement).
human cloned somatostatin receptor 3 (human), sequence (P32745 whole entry): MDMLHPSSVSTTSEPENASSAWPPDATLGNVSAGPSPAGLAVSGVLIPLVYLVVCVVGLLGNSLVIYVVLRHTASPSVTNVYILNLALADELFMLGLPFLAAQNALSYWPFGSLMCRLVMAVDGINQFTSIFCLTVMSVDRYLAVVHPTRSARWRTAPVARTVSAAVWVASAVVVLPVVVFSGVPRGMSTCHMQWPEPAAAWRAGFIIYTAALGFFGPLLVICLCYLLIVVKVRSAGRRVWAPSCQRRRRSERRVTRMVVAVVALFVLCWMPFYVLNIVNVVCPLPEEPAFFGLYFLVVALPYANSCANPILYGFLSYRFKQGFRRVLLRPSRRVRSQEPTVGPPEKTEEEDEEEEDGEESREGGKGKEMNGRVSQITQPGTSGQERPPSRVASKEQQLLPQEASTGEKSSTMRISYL

% displacement at 1 nM [%]	% displacement at 10 nM [%]	IC50 [nM]	Ki [nM]	Binder
59	93	–	–	B1
61	88	–	–	B2
–	–	0.9	–	B3
27	75	2.4	–	B13
47	88	–	–	B4
–	–	0.73	0.25	B14
49	85	–	–	B5
–	–	0.9	–	B6
–	–	0.43	0.15	B7
66	88	–	–	B15
49	87	–	–	B8
59	91	1	–	B9
47	88	–	–	B10
64	93	–	–	B11
66	95	–	–	B12

From patent US20240165282A1, “CONFORMATIONAL CONSTRAINED SOMATOSTATIN RECEPTOR 3 PEPTIDE LIGANDS AND THEIR CONJUGATES AND USES THEREOF” (STARGET PHARMA LTD., priority 2021, published 2024)
